In patent US8530213B2, “Compositions and methods for using NADH oxidases” (Georgia Tech Research Corporation, priority 2009, dated 2013):

Key:
NOX5 [1] = biological target: T1, NOX5 (Lactiplantibacillus plantarum, UniProt F9UUC2); settings: H2O2 up to 200 μM, 30 minutes incubation
Experimental: (§1) Inhibition effects of NAD^+ and H2O2 were measured by incubating the enzyme with possible inhibitors for 30 minutes before the assay. For NAD^+, 0.2, 0.3, 0.4 and 0.6 mM were chosen and for H2O2, 25, 50, 100 and 200 μM were investigated.
The effect of H2O2 was studied with a concentration range up to 200 μM, which would be the total amount produced from a standard assay if the enzyme was a hydrogen peroxide producing NADPH oxidase.

NOX5 [2] = biological target: T1, NOX5; assay: NAD+ product inhibition of NOX5; format: biochemical, Lactobacillus plantarum
Experimental: as §1
Possible product inhibitory effects were investigated by incubating the enzyme with different concentrations of NAD^+. […] (FIG. 6).

[3] = Kinetic parameters of purified NADH oxidases, substrate NADH; format: biochemical; settings: for Km / kcat, NADH: purified enzyme, excess of oxygen
Experimental: (§2) Standard assays were performed at 25° C. in 100 mM TEA buffer (pH 7.5) with 5 mM DTT in cuvettes with either a 1 cm or 1 mm path length, depending on the concentration of substrate. Initial activity was measured by following the absorbance change using a Beckman Coulter DU 800 UV/Vis spectrophotometer at 340 nm. Activity of the enzyme was calculated using an extinction coefficient of NAD(P)H, ε, as 6.22 mM^−1 cm^−1. Unless otherwise noted, a substrate concentration of 0.2 mM NADPH was used for assays. 1 unit (U) of activity is defined as […].
[…] This was conducted with an excess of oxygen present in the system. The reaction was initiated by mixing two separate 2× solutions of each the substrate and enzyme. The specific activity was measured, and the kinetic parameters were calculated from that data.
The data was fitted with four different models: non-linear Michaelis-Menten, Lineweaver-Burk, Eadie-Hofstee and Hanes. Through non-linear fitting, kcat and KM of the wild type were measured to be 211.6 s^−1 and 50.2 μM, respectively with an R^2 of 0.998. (FIG. 5).

pH activity profile = format: biochemical; settings: 25° C., 100 mM buffers
Experimental: as §2
Enzyme pH activity profiles were obtained at 25° C. using 100 mM buffers with the following salts: sodium citrate from pH 4.0 to pH 6.5; sodium phosphate from pH 6.0 to pH 8.0; TEA from pH 7.0 to pH 8.0; Tris-HCl from pH 7.0 to pH 9.0; glycine from pH 9.0 to pH 10.0.

[4] = Amplex Red assay of H2O2 produced during turnover; format: biochemical; settings: 50 mM sodium phosphate buffer (pH 7.4)
Experimental: An Amplex Red Hydrogen Peroxide/Peroxidase Assay Kit (Invitrogen) was used to determine the amount of hydrogen peroxide (H2O2) produced during turnover. Various amounts of substrates were reacted and assayed to detect the presence of H2O2. The reactions were carried out in the provided 50 mM sodium phosphate buffer (pH 7.4). Standards for the calibration curve were made with the same reaction buffer.
To determine whether NOX5 is a water or hydrogen peroxide producing enzyme, an amplex red assay was performed. The presence of H2O2 can be confirmed by incubating the standard assay mixture with amplex red and peroxidase. Produced resorufin can be detected using a fluorescence spectroscopy analysis.

[5] = Temperature activity profile; format: biochemical
Experimental: as §2
Temperature dependent activity was studied by incubating the enzyme at different temperatures. After one minute of incubation, the standard assay was carried out. A temperature range of 10 to 55° C. was chosen for this study.

[6] = Total turnover number (TTN), NADH; format: biochemical; design: key: TTN = change in NAD(P)H concentration / amount of enzyme; settings: for TTN with DTT, NADH: 5 mM DTT, 25° C.; for TTN, NADH: no reducing agents
Experimental: (§3) Standard kinetic assays were performed with small amounts of enzyme. Assays were carried out for two to three hours until there was no more enzymatic conversion of the substrate.
Total turnover number (TTN) is a measurement of catalyst productivity. For biocatalysts, TTN is defined as the total amount of product produced over the lifetime of an enzyme. […] […] (data not shown).
(§4) This experiment was repeated to see if the presence of reducing agents had any effect on the total turnover number. The stock solution of enzyme was dialyzed against 250 mL of 10 mM Tris-HCl (pH 7.5) for two hours. The solution was then exchanged and dialyzed for an additional 2 hours. The TTN was then measured with the dialyzed enzyme with and without reducing agents. DTT and β-mercaptoethanol (β-ME) were used at a concentration of 5 mM. The TTN for the sample with no reducing agents, DTT and β-ME were 128,000, 168,000 and 107,000, respectively.

[7] = Temperature stability (30 minutes incubation, assayed at 25° C.); format: physicochemical
Experimental: Temperature stability was studied by incubating the enzyme at various temperatures for 30 minutes. The enzyme solution was then cooled down and assayed at 25° C. This study covered a temperature range of 15° C. to 55° C.

[8] = NOX5 mutants assayed at the cell lysate level, NADPH activity; format: biochemical
Experimental: as §2
(§5) Single mutations were done on residues G178 and L179 into K, R and K, R, H respectively, and double mutations were also investigated with different combinations of the single mutations. The mutation of G178H was excluded due to the fact that the enzyme would then have two histidines next to each other, creating steric hindrance in the binding pocket. The resulting mutants were expressed on small scale and assayed at the cell lysate level.

[9] = NOX5 mutants assayed at the cell lysate level, NADH activity; format: biochemical
Experimental: as §2, §5

[10] = Kinetic parameters of purified NADH oxidases, substrate NADPH; format: biochemical; settings: purified enzyme, excess of oxygen
Experimental: as §2
Depending on the enzyme, a substrate concentration range from 1.5 μM up to 984 μM was investigated to determine the kcat and KM of NADPH. This was conducted with an excess of oxygen present in the system. The reaction was initiated by mixing two separate 2× solutions of each the substrate and enzyme. The specific activity was measured, and the kinetic parameters were calculated from that data.

[11] = Total turnover number (TTN), NADPH; format: biochemical
Experimental: as §3
Total turnover number (TTN) is a measurement of catalyst productivity. For biocatalysts, TTN is defined as the total amount of product produced over the lifetime of an enzyme. Calculations of TTN were performed by dividing the change of NADPH concentration by the amount of enzyme that was used for each assay. […] (data not shown).
as §4

| Molecule | Km [3] [µM] | kcat, NADH [3] [s⁻¹] | TTN, NADH [6] | NADPH activity [8] [U/mg] | NADH activity [9] [U/mg] | Km [10] [µM] | kcat, NADPH [10] [s⁻¹] | TTN with DTT, NADH [6] | further results |
| --- | --- | --- | --- | --- | --- | --- | --- | --- | --- |
| OO [H2O2, hydrogen peroxide] | – | – | – | – | – | – | – | – | change in the initial specific activity of the enzyme (NOX5 [1]): no change |
| NC(=O)c1ccc[n+]([C@@H]2O[C@H](COP(=O)([O-])OP(=O)(O)OC[C@H]3O[C@@H](n4cnc5c(N)ncnc54)[C@H](O)[C@@H]3O)[C@@H](O)[C@H]2O)c1 [NAD^+] | – | – | – | – | – | – | – | – | Ki (NOX5 [2]; 0.2, 0.3, 0.4 and 0.6 mM NAD^+, 30 minutes incubation): 289 µM; inhibition pattern (NOX5 [2]; Hanes-Woolf plot): non-competitive |
| NOX5: NADH oxidase V from Lactobacillus plantarum, wild type, 49 kDa, SEQ ID NO: 1 (protein, listed as Lactobacillus plantarum) MKVIVIGCTHAGTAAVNQILASNPDTEVTIYERNDNVSFLSCGIALYLGGQVADPQGLFYSSPEQLAKLGATVHMQHDVTDVNTDKHEITVTDLKTGESKTDHYDKLVVTTGSWPVIPPIDGIDSPNVYLCKNWTHAQNLWEAAKPAKRVIVIGGGYIGTELVEAYQKQGKEVTLIDGLPRILNKYLDKEFTDRVEQDFVDHGIKMALNQMVQGFSDDGKEVTVKTDKGSYTADMAILCVGFRPNTGLLKGKVDMNANGSIKTNDYMQTSDPDIYGAGDSVAVHYNPTKKDAYIPLATNAVRQGTLVGLNIFKPTRKYMGTQSTSGLMLFGQTIVSSGMTLEHAQAENVPAAAVTFEDNYRPEFMPTTKPVLMQLVYNPETREILGAQFMSEHDVSQSANVISVMIQNHNTIDDLGFVDMFFQPIYDRPFNYLNLLGQAAIAHAAEAVTE | 50.2 | 211.6 | 128,000 | 0.00 | 10.0 | – | – | – | pH of maximum activity (pH activity profile): 7.5; H2O2 produced, ratio of NADH [4]: 2.63%; activation energy, Ea ([5]; Arrhenius model): 7.82 kcal/mol; deactivation energy, Ed ([5]; Arrhenius model): -22.4 kcal/mol; temperature of maximum instantaneous activity ([5]; range 10 to 55° C., one minute of incubation): 40 °C; TTN with DTT, NADH ([6]; listed as NOX5 WT): 168,000; TTN with β-mercaptoethanol (β-ME) ([6]; 5 mM β-ME, dialyzed enzyme): 107,000; Enthalpy of deactivation, ΔH [7]: 1.19 kcal/mol; activity at 55° C. ([7]; 55° C.): inactive; T50^30, temperature that exhibited half of the original activity ([7]; 30 minutes incubation): 45 °C |
| L179R: NADH oxidase derived from Lactobacillus plantarum, L179R mutant (protein, listed as Lactobacillus plantarum) MKVIVIGCTHAGTAAVNQILASNPDTEVTIYERNDNVSFLSCGIALYLGGQVADPQGLFYSSPEQLAKLGATVHMQHDVTDVNTDKHEITVTDLKTGESKTDHYDKLVVTTGSWPVIPPIDGIDSPNVYLCKNWTHAQNLWEAAKPAKRVIVIGGGYIGTELVEAYQKQGKEVTLIDGRPRILNKYLDKEFTDRVEQDFVDHGIKMALNQMVQGFSDDGKEVTVKTDKGSYTADMAILCVGFRPNTGLLKGKVDMNANGSIKTNDYMQTSDPDIYGAGDSVAVHYNPTKKDAYIPLATNAVRQGTLVGLNIFKPTRKYMGTQSTSGLMLFGQTIVSSGMTLEHAQAENVPAAAVTFEDNYRPEFMPTTKPVLMQLVYNPETREILGAQFMSEHDVSQSANVISVMIQNHNTIDDLGFVDMFFQPIYDRPFNYLNLLGQAAIAHAAEAVTE | 6.56 | 122.0 | 181,000 | 1.76 | 7.32 | 490 | 146.4 | 149,000 | improvement of kcat/KM (NADH) over the wild-type [3]: more than 4 fold |
| G178R/L179R: NADH oxidase derived from Lactobacillus plantarum, G178R/L179R mutant (protein, listed as Lactobacillus plantarum) MKVIVIGCTHAGTAAVNQILASNPDTEVTIYERNDNVSFLSCGIALYLGGQVADPQGLFYSSPEQLAKLGATVHMQHDVTDVNTDKHEITVTDLKTGESKTDHYDKLVVTTGSWPVIPPIDGIDSPNVYLCKNWTHAQNLWEAAKPAKRVIVIGGGYIGTELVEAYQKQGKEVTLIDRRPRILNKYLDKEFTDRVEQDFVDHGIKMALNQMVQGFSDDGKEVTVKTDKGSYTADMAILCVGFRPNTGLLKGKVDMNANGSIKTNDYMQTSDPDIYGAGDSVAVHYNPTKKDAYIPLATNAVRQGTLVGLNIFKPTRKYMGTQSTSGLMLFGQTIVSSGMTLEHAQAENVPAAAVTFEDNYRPEFMPTTKPVLMQLVYNPETREILGAQFMSEHDVSQSANVISVMIQNHNTIDDLGFVDMFFQPIYDRPFNYLNLLGQAAIAHAAEAVTE | – | 34.0 | 108,000 | 6.00 | 2.64 | 9.76 | 114.1 | 128,000 | TTN, NADPH ([11]; no reducing agents): 105,000; TTN with DTT, NADPH ([11]; with DTT): 118,000 |
| L. lactis NOX2: NADH oxidase from Lactococcus lactis, comparison enzyme (protein, UniProt A2RIB7 1-446, looked up) NADH oxidase: MKIVVIGTNHAGIATANTLLEQYPGHEIVMIDRNSNMSYLGCGTAIWVGRQIEKPDELFYAKAEDFEAKGVKILTETEVSEIDFANKKVYAKTKSDDEIIEAYDKLVLATGSRPIIPNLPGKDLKGIHFLKLFQEGQAIDAEFAKEKVKRIAVIGAGYIGTEIAEAAKRRGKEVLLFDAENTSLASYYDEEFAKGMDENLAQHGIELHFGELAKEFKANEEGYVSQIVTNKATYDVDLVINCIGFTANSALASDKLATFKNGAIKVDKHQQSSDPDVYAVGDVATIYSNALQDFTYIALASNAVRSGIVAGHNIGGKELESVGVQGSNGISIFGYNMTSTGLSVKAAKKLGLEVSFSDFEDKQKAWFLHENNDSVKIRIVYETKSRRIIGAQLASKSEIIAGNINMFSLAIQEKKTIDELALLDLFFLPHFNSPYNYMTVAALNAK | – | – | 38,740 | – | – | – | – | 78,480 | – |
